Source: patent US20250043287, “SYNTHETIC MEMORY WITH INTERCEPTING RECOMBINASE FUNCTION” (Georgia Tech Research Corporation, published 2025)
Residue numbers refer to the chain shown, from its start.

How the values were obtained:
I+HQN = I+HQN (UniProt P03023 SEQ:1-360, Y17H,R22N); assay: cell_activity; day 1 dynamic range, IPTG; 57.65 day 3; conditions: chain copies: 4
E+HQN = target: T1, E+HQN (UniProt O87590 SEQ:1-337, Y17H,R22N); assay: cell_activity; day 1 dynamic range of interception, cellobiose induced; 114.83 day 3; conditions: chain copies: 2
T1 sequence: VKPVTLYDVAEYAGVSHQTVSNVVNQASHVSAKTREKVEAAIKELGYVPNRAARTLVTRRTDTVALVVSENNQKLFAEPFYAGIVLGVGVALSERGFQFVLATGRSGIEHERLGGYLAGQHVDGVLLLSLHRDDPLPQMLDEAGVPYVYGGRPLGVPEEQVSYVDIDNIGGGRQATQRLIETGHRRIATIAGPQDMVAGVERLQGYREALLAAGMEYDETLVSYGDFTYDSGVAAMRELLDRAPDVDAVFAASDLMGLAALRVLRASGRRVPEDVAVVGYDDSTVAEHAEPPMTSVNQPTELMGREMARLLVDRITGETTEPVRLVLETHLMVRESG

I+YQR (LacI) = target: T2, I+YQR (LacI) (UniProt P03023 SEQ:1-360); assay: cell_activity; day 1 dynamic range; 29.77 day 3; conditions: chain copies: 4
T2 chain: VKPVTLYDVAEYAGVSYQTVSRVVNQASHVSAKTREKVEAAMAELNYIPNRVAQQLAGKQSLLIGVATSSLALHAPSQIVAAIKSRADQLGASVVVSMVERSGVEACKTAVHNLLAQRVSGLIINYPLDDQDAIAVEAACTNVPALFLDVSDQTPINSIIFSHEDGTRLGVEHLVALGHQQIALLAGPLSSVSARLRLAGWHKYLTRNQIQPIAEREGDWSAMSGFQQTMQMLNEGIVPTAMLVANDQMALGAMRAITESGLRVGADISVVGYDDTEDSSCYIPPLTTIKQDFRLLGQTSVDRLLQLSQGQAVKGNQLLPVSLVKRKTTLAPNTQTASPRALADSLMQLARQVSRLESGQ

[1] = target: T3, E+YQR (CelR core, LacI-type DBD) (UniProt O87590 SEQ:1-337); assay: cell_activity; day 1 dynamic range; 141.52 day 3; conditions: chain copies: 2
T3 chain: T1 sequence with H17Y, N22R

I+KSL = I+KSL (UniProt P03023 SEQ:1-360, Y17K,Q18S,R22L); assay: cell_activity; day 1 dynamic range; 7.42 day 3; conditions: chain copies: 4
E+KSL = target: T4, E+KSL (UniProt O87590 SEQ:1-337, Y17K,Q18S,R22L); assay: cell_activity; day 1 dynamic range; 71.51 day 3; conditions: chain copies: 2
T4 sequence: T1 sequence with H17K, Q18S, N22L

B1: A118 attP Ottg P+1 (dsDNA)
DNA 1: TTAGTTCCTCGTTTTCTCTCGTTAATTTTGAGCGCTCAAAAAAACTAAA
DNA 2: TTTAGTTTTTTTGAGCGCTCAAAATTAACGAGAGAAAACGAGGAACTAA
B1 gave a binding signal (I+HQN) of 15.4 fold and a binding signal (E+HQN) of 20.6 fold.

B2: A118 attP Ogtg (Osym) P+1 (dsDNA)
DNA 1: B1 DNA 1 with T28G, A39C
DNA 2: B1 DNA 2 with T11G, A22C
B2 gave a dynamic range (I+YQR (LacI)) of 9.26 fold and a binding signal [1] of 20.9 fold.

B3: A118 attP Oagg P+1 (dsDNA)
DNA 1: B1 DNA 1 with T28A, T29G, A38C, A39T
DNA 2: B1 DNA 2 with T11A, T12G, A21C, A22T
Binder B3 has a binding signal (I+KSL) of 5.44 fold and a binding signal (E+KSL) of 14.7 fold.
